This note sets out measurements from the Immune Epitope Database (IEDB).

pKd: −log10 of the molar value.

For orientation: pKd means the Kd on a negative log10 scale, so that one unit is a factor of ten.

Some targets named below: HLA-A*03:01; HLA-A*11:01; HLA-A*31:01; HLA-A*33:01; HLA-A*68:01.
Holding throughout (assay): IEDB peptide-MHC binding, purified MHC/competitive/radioactivity; filed as Kd, often an IC50 or EC50 that approximates it; ≥ and ≤ were set here for values at or beyond the usual limits of such assays
[1] abbreviates: source organism: Lymphocytic choriomeningitis virus (strain WE).
[2] abbreviates: source organism: Dengue virus 2 Jamaica/1409/1983.
[3] abbreviates: source organism: Vaccinia virus WR.
Where [4] appears, read: source organism: SARS coronavirus Tor2.
[5] abbreviates: source organism: Dengue virus 1 Brazil/97-11/1997.
Setting [6] is: source organism: Dengue virus 4 Dominica/814669/1981.
Setting [7] is: source organism: Dengue virus 4 Philippines/H241/1956.
Setting [8] is: source organism: Dengue virus 3 Martinique/1243/1999.
[9] abbreviates: source organism: Mammarenavirus guanaritoense.

With SRILFAQEK, the pKd is 4.80 with HLA-A*03:01 (setting [1]); 6.11 with HLA-A*11:01 (setting [1]); ≤ 4.41 in the assay with HLA-A*31:01 (setting [1]); ≤ 4.11 with HLA-A*33:01 (setting [1]); 5.13 in the assay with HLA-A*68:01 (setting [1]).
On to VTHSSAAQR, for which the negative-log Kd (pKd) in the assay with HLA-A*31:01 (setting [2]) was 7.59; with HLA-A*68:01 (setting [2]), 7.38.
Take SAKLRWFVER: the pKd with HLA-A*31:01 (setting [2]) was 7.58; with HLA-A*33:01 (setting [2]), 7.33.
For TISKDNLER, the pKd in the assay with HLA-A*03:01 (setting [3]) is 5.58; in the assay with HLA-A*11:01 (setting [3]), 6.77; with HLA-A*31:01 (setting [3]), 6.76; with HLA-A*33:01 (setting [3]), 6.31; with HLA-A*68:01 (setting [3]), 7.74.
On the same counts, the results for SSKGNCAIK are 5.17, 5.67, 5.67, 4.75 and 5.46.
As for VSLKKTNDK, the pKd with HLA-A*03:01 (setting [3]) is 6.71; with HLA-A*11:01 (setting [3]), 7.49; with HLA-A*31:01 (setting [3]), 5.06; with HLA-A*33:01 (setting [3]), ≤ 4.26; with HLA-A*68:01 (setting [3]), 4.71.
In the same order, the values of KQYDSTDFK are 7.21, 7.47, 7.15, ≤ 4.59 and 5.73.
With DLPSGFNTLK, the pKd was 5.64 in the assay with HLA-A*03:01 (setting [4]); 5.91 with HLA-A*11:01 (setting [4]); ≤ 4.44 in the assay with HLA-A*31:01 (setting [4]); 4.98 with HLA-A*33:01 (setting [4]); 7.96 with HLA-A*68:01 (setting [4]).
Consider RLSILSKDK, for which the pKd was 6.21 with HLA-A*03:01 (setting [3]); 5.92 in the assay with HLA-A*11:01 (setting [3]); 4.97 in the assay with HLA-A*31:01 (setting [3]); 4.89 with HLA-A*33:01 (setting [3]); 5.97 with HLA-A*68:01 (setting [3]).
In the case of MYFHRRDLR, the pKd in the assay with HLA-A*31:01 (setting [2]) was 9.86; with HLA-A*33:01 (setting [2]) it was 8.25; in the assay with HLA-A*68:01 (setting [2]) it was 6.46.
With DARYCSEFIR, the pKd in the assay with HLA-A*03:01 (setting [3]) was ≤ 4.15; with HLA-A*11:01 (setting [3]) it was ≤ 4.43; with HLA-A*31:01 (setting [3]), 5.95; with HLA-A*33:01 (setting [3]) it was 7.61; with HLA-A*68:01 (setting [3]), 6.60.
EIIFLKLFKK: the negative logarithm of the Kd (pKd) is 7.05 with HLA-A*03:01 (setting [3]); 7.75 in the assay with HLA-A*11:01 (setting [3]); 7.70 in the assay with HLA-A*31:01 (setting [3]); 6.89 with HLA-A*33:01 (setting [3]); 8.27 in the assay with HLA-A*68:01 (setting [3]).
As for AMDEFIQRYK, the pKd with HLA-A*03:01 (setting [4]) was 7.41; in the assay with HLA-A*11:01 (setting [4]), 7.23; with HLA-A*31:01 (setting [4]) it was 6.66; with HLA-A*33:01 (setting [4]) it was 4.88; with HLA-A*68:01 (setting [4]), 5.08.
Regarding AISGDDCVVK, the pKd with HLA-A*11:01 (setting [2]) was 5.68.
Consider SMTIREFPR, for which the pKd is 4.83 with HLA-A*03:01 (setting [3]); 6.22 with HLA-A*11:01 (setting [3]); 9.79 in the assay with HLA-A*31:01 (setting [3]); 8.71 with HLA-A*33:01 (setting [3]); 6.70 with HLA-A*68:01 (setting [3]).
Take IQRFSSLRR: the pKd with HLA-A*03:01 (setting [3]) was 6.90; with HLA-A*11:01 (setting [3]), 6.00; with HLA-A*31:01 (setting [3]), 7.25; with HLA-A*33:01 (setting [3]) it was ≤ 4.52; with HLA-A*68:01 (setting [3]), 4.92.
In the same order, the values of FALKKLIIDR are ≤ 4.15, 5.68, 5.97, 5.48 and 6.26.
Consider WYLWEVKKQR, for which the pKd with HLA-A*33:01 (setting [2]) was 7.40.
In the case of LVMAFIAFLR, the pKd with HLA-A*11:01 (setting [5]) was 5.86; with HLA-A*31:01 (setting [5]), 7.13; in the assay with HLA-A*33:01 (setting [5]), 6.97; in the assay with HLA-A*68:01 (setting [5]) it was 7.50.
Regarding LWRTLGRNKR, the pKd in the assay with HLA-A*31:01 (source organism: Dengue virus 3 Sri Lanka/1266/2000) is 6.15.
As for GYVLGVFLR, the pKd in the assay with HLA-A*31:01 (setting [6]) was 7.27; in the assay with HLA-A*33:01 (setting [6]) it was 5.74.
For the sequence CTTTGEHRR, in the assay with HLA-A*68:01 (source organism: Dengue virus 2 Peru/IQT2913/1996), the pKd was 7.56.
TVCYVLTGR: the pKd in the assay with HLA-A*31:01 (setting [2]) was 7.99; with HLA-A*33:01 (setting [2]), 8.80; with HLA-A*68:01 (setting [2]) it was 7.82.
Consider TTSKMLLNR, for which the pKd with HLA-A*11:01 (setting [7]) was 6.75; with HLA-A*68:01 (setting [7]), 7.22.
In the case of TANPVVTKK, the pKd with HLA-A*11:01 (setting [8]) was 6.61.
LLNGQGPMK: the pKd with HLA-A*03:01 (setting [8]) was 7.79.
HLKCRLKMDK: the negative-log Kd (pKd) in the assay with HLA-A*03:01 (setting [5]) was 7.17.
On to QAAILMGLDK, for which, in the assay with HLA-A*68:01 (setting [5]), the pKd is 6.42.
With RTLAKEGIKR, in the assay with HLA-A*31:01 (setting [2]), the pKd was 7.84.
On to RLKMDKLTLK, for which the pKd in the assay with HLA-A*03:01 (setting [5]) is 7.89.
Take VTAASAAQR: the pKd in the assay with HLA-A*68:01 (setting [8]) was 7.36.
For KPKPAVRFAI, the pKd with HLA-A*31:01 (setting [3]) is ≤ 4.15.
For the sequence MATYGWNLVK, in the assay with HLA-A*11:01 (setting [5]), the pKd was 6.43.
For the sequence RQMEGEGIFK, the figures for the pKd with HLA-A*03:01 (setting [2]) and in the assay with HLA-A*11:01 (setting [2]) were 7.67 and 6.90, respectively.
As for TLGWLLQTPK, in the assay with HLA-A*03:01 (source organism: Homo sapiens), the pKd was 8.12.
AALAFHLTSR: the pKd with HLA-A*31:01 (setting [8]) was 7.76.
For the sequence KVLRENTSPK, the pKd in the assay with HLA-A*03:01 (source organism: Homo sapiens) is 7.54.
Regarding EFKEFAAGRR, in the assay with HLA-A*33:01 (setting [5]), the pKd was 7.42.
With ACRCGRFQK, the pKd was 5.45 in the assay with HLA-A*03:01 (setting [9]), 5.29 in the assay with HLA-A*11:01 (setting [9]), 5.84 with HLA-A*31:01 (setting [9]) and ≤ 4.56 with HLA-A*33:01 (setting [9]).
On to EKVETWALR, for which the pKd with HLA-A*33:01 (setting [8]) was 7.13; with HLA-A*68:01 (setting [8]), ≤ 4.64.
With YYCGGLKNVR, the pKd with HLA-A*33:01 (setting [2]) was 8.51.
